In patent US20040077031:

Test system: MAS (methionine-alanine-serine) trimeric peptide

In the case of “recombinant human methionine aminopeptidase type 1 (MetAP1) with N-terminal histidine tag”, the “enzymatic cleavage of peptide substrate” value is reported as “showed enzymatic activity in cleaving a tripeptide MAS substrate”.
